Laboratory results published in the supplement of paper PMC5998384.

How the values were obtained:
HeLa Kyoto [1] = test: solubility in G1/S (NP-40 vs SDS abundance) (log2 ratio); higher = more soluble; details: cell cycle stage: G1/S
HeLa Kyoto [2] = test: solubility change mitosis vs G1/S (difference of NP-40 vs SDS log2 ratios) (log2 ratio difference); higher = more soluble in mitosis
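Throughout, for solubility change mitosis vs G1/S (difference of NP-40 vs SDS log2 ratios): synchronized HeLa Kyoto cells (double thymidine block for G1/S, nocodazole release for mitosis), protein amounts in NP-40 versus SDS lysates quantified by mass spectrometry, three biological replicates.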
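Throughout, for solubility in G1/S (NP-40 vs SDS abundance): HeLa Kyoto cells arrested at G1/S by double thymidine block, proteins quantified by TMT10plex mass spectrometry in mild NP-40 versus SDS extracts, three biological replicates.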

## MARRSQSSSQGDNPLAPGYLPPHYKEYYRLAVDALAEGGSEAYSRFLATEGAPDFLCPEELEHVSRHLRPPQYVTREPPEGSLLDVDMDGSSGTYWPVNSDQAVPELDLGWPLTFGFQGTEVTTLVQPPPPDSPSIKDEARRMIRSAQQVVAVVMDMFTDVDLLSEVLEAAARRVPVYILLDEMNAQHFLDMADKCRVNLQHVDFLRVRTVAGPTYYCRTGKSFKGHVKEKFLLVDCAVVMSGSYSFMWSFEKIHRSLAHVFQGELVSSFDEEFRILFAQSEPLVPSAAALARMDAYALAPYAGAGPLVGVPGVGAPTPFSFPKRAHLLFPPPREEGLGFPSFLDPDRHFLSAFRREEPPRMPGGALEPHAGLRPLSRRLEAEAGPAGELAGARGFFQARHLEMDAFKRHSFATEGAGAVENFAAARQVSRQTFLSHGDDFRFQTSHFHRDQLYQQQYQWDPQLTPARPQGLFEKLRGGRAGFADPDDFTLGAGPRFPELGPDGHQRLDYVPSSASREVRHGSDPAFAPGPRGLEPSGAPRPNLTQRFPCQAAARPGPDPAPEAEPERRGGPEGRAGLRRWRLASYLSGCHGEDGGDDGLPAPMEAEAYEDDVLAPGGRAPAGDLLPSAFRVPAAFPTKVPVPGPGSGGNGPEREGPEEPGLAKQDSFRSRLNPLVQRSSRLRSSLIFSTSQAEGAAGAAAATEKVQLLHKEQTVSETLGPGGEAVRSAASTKVAELLEKYKGPARDPGGGAGAITVASHSKAVVSQAWREEVAAPGAVGGERRSLESCLLDLRDSFAQQLHQEAERQPGAASLTAAQLLDTLGRSGSDRLPSRFLSAQSHSTSPQGLDSPLPLEGSGAHQVLHNESKGSPTSAYPERKGSPTPGFSTRRGSPTTGFIEQKGSPTSAYPERRGSPVPPVPERRSSPVPPVPERRGSLTLTISGESPKAGPAEEGPSGPMEVLRKGSLRLRQLLSPKGERRMEDEGGFPVPQENGQPESPRRLSLGQGDSTEAATEERGPRARLSSATANALYSSNLRDDTKAILEQISAHGQKHRAVPAPSPGPTHNSPELGRPPAAGVLAPDMSDKDKCSAIFRSDSLGTQGRLSRTLPASAEERDRLLRRMESMRKEKRVYSRFEVFCKKEEASSPGAGEGPAEEGTRDSKVGKFVPKILGTFKSKK [FAM83H]
HeLa Kyoto [1]
  solubility in G1/S (log2): -0.733
HeLa Kyoto [2]
  solubility change mitosis (log2): -0.0789

## MASATAPAAAVPTLASPLEQLRHLAEELRLLLPRVRVGEAQETTEEFNREMFWRRLNEAAVTVSREATTLTIVFSQLPLPSPQETQKFCEQVHAAIKAFIAVYYLLPKDQGITLRKLVRGATLDIVDGMAQLMEVLSVTPTQSPENNDLISYNSVWVACQQMPQIPRDNKAAALLMLTKNVDFVKDAHEEMEQAVEECDPYSGLLNDTEENNSDNHNHEDDVLGFPSNQDLYWSEDDQELIIPCLALVRASKACLKKIRMLVAENGKKDQVAQLDDIVDISDEISPSVDDLALSIYPPMCHLTVRINSAKLVSVLKKALEITKASHVTPQPEDSWIPLLINAIDHCMNRIKELTQSELEL [CCNDBP1]
HeLa Kyoto [1]
  solubility in G1/S (log2): 0.509
HeLa Kyoto [2]
  solubility change mitosis (log2): -0.176

## MASDGARKQFWKRSNSKLPGSIQHVYGAQHPPFDPLLHGTLLRSTAKMPTTPVKAKRVSTFQEFESNTSDAWDAGEDDDELLAMAAESLNSEVVMETANRVLRNHSQRQGRPTLQEGPGLQQKPRPEAEPPSPPSGDLRLVKSVSESHTSCPAESASDAAPLQRSQSLPHSATVTLGGTSDPSTLSSSALSEREASRLDKFKQLLAGPNTDLEELRRLSWSGIPKPVRPMTWKLLSGYLPANVDRRPATLQRKQKEYFAFIEHYYDSRNDEVHQDTYRQIHIDIPRMSPEALILQPKVTEIFERILFIWAIRHPASGYVQGINDLVTPFFVVFICEYIEAEEVDTVDVSGVPAEVLCNIEADTYWCMSKLLDGIQDNYTFAQPGIQMKVKMLEELVSRIDEQVHRHLDQHEVRYLQFAFRWMNNLLMREVPLRCTIRLWDTYQSEPDGFSHFHLYVCAAFLVRWRKEILEEKDFQELLLFLQNLPTAHWDDEDISLLLAEAYRLKFAFADAPNHYKK [TBC1D22A]
HeLa Kyoto [1]
  solubility in G1/S (log2): 0.31
HeLa Kyoto [2]
  solubility change mitosis (log2): -0.253

## MASESSPLLAYRLLGEEGVALPANGAGGPGGASARKLSTFLGVVVPTVLSMFSIVVFLRIGFVVGHAGLLQALAMLLVAYFILALTVLSVCAIATNGAVQGGGAYFMISRTLGPEVGGSIGLMFYLANVCGCAVSLLGLVESVLDVFGADATGPSGLRVLPQGYGWNLLYGSLLLGLVGGVCTLGAGLYARASFLTFLLVSGSLASVLISFVAVGPRDIRLTPRPGPNGSSLPPRFGHFTGFNSSTLKDNLGAGYAEDYTTGAVMNFASVFAVLFNGCTGIMAGANMSGELKDPSRAIPLGTIVAVAYTFFVYVLLFFLSSFTCDRTLLQEDYGFFRAISLWPPLVLIGIYATALSASMSSLIGASRILHALARDDLFGVILAPAKVVSRGGNPWAAVLYSWGLVQLVLLAGKLNTLAAVVTVFYLVAYAAVDLSCLSLEWASAPNFRPTFSLFSWHTCLLGVASCLLMMFLISPGAAGGSLLLMGLLAALLTARGGPSSWGYVSQALLFHQVRKYLLRLDVRKDHVKFWRPQLLLLVGNPRGALPLLRLANQLKKGGLYVLGHVTLGDLDSLPSDPVQPQYGAWLSLVDRAQVKAFVDLTLSPSVRQGAQHLLRISGLGGMKPNTLVLGFYDDAPPQDHFLTDPAFSEPADSTREGSSPALSTLFPPPRAPGSPRALNPQDYVATVADALKMNKNVVLARASGALPPERLSRGSGGTSQLHHVDVWPLNLLRPRGGPGYVDVCGLFLLQMATILGMVPAWHSARLRIFLCLGPREAPGAAEGRLRALLSQLRIRAEVQEVVWGEGAGAGEPEAEEEGDFVNSGRGDAEAEALARSANALVRAQQGRGTGGGPGGPEGGDAEGPITALTFLYLPRPPADPARYPRYLALLETLTRDLGPTLLVHGVTPVTCTDL [SLC12A9]
HeLa Kyoto [1]
  solubility in G1/S (log2): -0.0513
HeLa Kyoto [2]
  solubility change mitosis (log2): 0.119

## MASGVGAAFEELPHDGTCDECEPDEAPGAEEVCRECGFCYCRRHAEAHRQKFLSHHLAEYVHGSQAWTPPADGEGAGKEEAEVKVEQEREIESEAGEESESEEESESEEESETEEESEDESDEESEEDSEEEMEDEQESEAEEDNQEEGESEAEGETEAESEFDPEIEMEAERVAKRKCPDHGLDLSTYCQEDRQLICVLCPVIGAHQGHQLSTLDEAFEELRSKDSGGLKAAMIELVERLKFKSSDPKVTRDQMKMFIQQEFKKVQKVIADEEQKALHLVDIQEAMATAHVTEILADIQSHMDRLMTQMAQAKEQLDTSNESAEPKAEGDEEGPSGASEEEDT [TRIM44]
HeLa Kyoto [1]
  solubility in G1/S (log2): -0.118
HeLa Kyoto [2]
  solubility change mitosis (log2): -0.202

## MASLQRKGLQARILTSEEEEKLKRDQTLVSDFKQQKLEQEAQKNWDLFYKRNSTNFFKDRHWTTREFEELRSCREFEDQKLTMLEAGCGVGNCLFPLLEEDPNIFAYACDFSPRAIEYVKQNPLYDTERCKVFQCDLTKDDLLDHVPPESVDVVMLIFVLSAVHPDKMHLVLQNIYKVLKPGKSVLFRDYGLYDHAMLRFKASSKLGENFYVRQDGTRSYFFTDDFLAQLFMDTGYEEVVNEYVFRETVNKKEGLCVPRVFLQSKFLKPPKNPSPVVLGLDPKS [METTL6]
HeLa Kyoto [1]
  solubility in G1/S (log2): 0.0543
HeLa Kyoto [2]
  solubility change mitosis (log2): 0.018

## MASNSSSCPTPGGGHLNGYPVPPYAFFFPPMLGGLSPPGALTTLQHQLPVSGYSTPSPATIETQSSSSEEIVPSPPSPPPLPRIYKPCFVCQDKSSGYHYGVSACEGCKGFFRRSIQKNMVYTCHRDKNCIINKVTRNRCQYCRLQKCFEVGMSKESVRNDRNKKKKEVPKPECSESYTLTPEVGELIEKVRKAHQETFPALCQLGKYTTNNSSEQRVSLDIDLWDKFSELSTKCIIKTVEFAKQLPGFTTLTIADQITLLKAACLDILILRICTRYTPEQDTMTFSDGLTLNRTQMHNAGFGPLTDLVFAFANQLLPLEMDDAETGLLSAICLICGDRQDLEQPDRVDMLQEPLLEALKVYVRKRRPSRPHMFPKMLMKITDLRSISAKGAERVITLKMEIPGSMPPLIQEMLENSEGLDTLSGQPGGGGRDGGGLAPPPGSCSPSLSPSSNRSSPATHSP [RARA]
HeLa Kyoto [1]
  solubility in G1/S (log2): 0.18
HeLa Kyoto [2]
  solubility change mitosis (log2): -0.153

## MASPSKAVIVPGNGGGDVTTHGWYGWVKKELEKIPGFQCLAKNMPDPITARESIWLPFMETELHCDEKTIIIGHSSGAIAAMRYAETHRVYAIVLVSAYTSDLGDENERASGYFTRPWQWEKIKANCPYIVQFGSTDDPFLPWKEQQEVADRLETKLHKFTDCGHFQNTEFHELITVVKSLLKVPA [RBBP9]
HeLa Kyoto [1]
  solubility in G1/S (log2): 0.42
HeLa Kyoto [2]
  solubility change mitosis (log2): 0.00166

## MASQLQVFSPPSVSSSAFCSAKKLKIEPSGWDVSGQSSNDKYYTHSKTLPATQGQANSSHQVANFNIPAYDQGLLLPAPAVEHIVVTAADSSGSAATSTFQSSQTLTHRSNVSLLEPYQKCGLKRKSEEVDSNGSVQIIEEHPPLMLQNRTVVGAAATTTTVTTKSSSSSGEGDYQLVQHEILCSMTNSYEVLEFLGRGTFGQVAKCWKRSTKEIVAIKILKNHPSYARQGQIEVSILSRLSSENADEYNFVRSYECFQHKNHTCLVFEMLEQNLYDFLKQNKFSPLPLKYIRPILQQVATALMKLKSLGLIHADLKPENIMLVDPVRQPYRVKVIDFGSASHVSKAVCSTYLQSRYYRAPEIILGLPFCEAIDMWSLGCVIAELFLGWPLYPGASEYDQIRYISQTQGLPAEYLLSAGTKTTRFFNRDPNLGYPLWRLKTPEEHELETGIKSKEARKYIFNCLDDMAQVNMSTDLEGTDMLAEKADRREYIDLLKKMLTIDADKRITPLKTLNHQFVTMTHLLDFPHSNHVKSCFQNMEICKRRVHMYDTVSQIKSPFTTHVAPNTSTNLTMSFSNQLNTVHNQASVLASSSTAAAATLSLANSDVSLLNYQSALYPSSAAPVPGVAQQGVSLQPGTTQICTQTDPFQQTFIVCPPAFQTGLQATTKHSGFPVRMDNAVPIVPQAPAAQPLQIQSGVLTQGSCTPLMVATLHPQVATITPQYAVPFTLSCAAGRPALVEQTAAVLQAWPGGTQQILLPSTWQQLPGVALHNSVQPTAMIPEAMGSGQQLADWRNAHSHGNQYSTIMQQPSLLTNHVTLATAQPLNVGVAHVVRQQQSSSLPSKKNKQSAPVSSKSSLDVLPSQVYSLVGSSPLRTTSSYNSLVPVQDQHQPIIIPDTPSPPVSVITIRSDTDEEEDNKYKPSSSGLKPRSNVISYVTVNDSPDSDSSLSSPYSTDTLSALRGNSGSVLEGPGRVVADGTGTRTIIVPPLKTQLGDCTVATQASGLLSNKTKPVASVSGQSSGCCITPTGYRAQRGGTSAAQPLNLSQNQQSSAAPTSQERSSNPAPRRQQAFVAPLSQAPYTFQHGSPLHSTGHPHLAPAPAHLPSQAHLYTYAAPTSAAALGSTSSIAHLFSPQGSSRHAAAYTTHPSTLVHQVPVSVGPSLLTSASVAPAQYQHQFATQSYIGSSRGSTIYTGYPLSPTKISQYSYL [HIPK1]
HeLa Kyoto [1]
  solubility in G1/S (log2): 0.478
HeLa Kyoto [2]
  solubility change mitosis (log2): -0.386
